The source of these data is PMC10401710, “Cell Surface Labeling and Detection of Protein Tyrosine Kinase 7 via Covalent Aptamers”.

For data set [1], the target named is T1, PTK7-CFP (UniProt Q13308).
T1 sequence: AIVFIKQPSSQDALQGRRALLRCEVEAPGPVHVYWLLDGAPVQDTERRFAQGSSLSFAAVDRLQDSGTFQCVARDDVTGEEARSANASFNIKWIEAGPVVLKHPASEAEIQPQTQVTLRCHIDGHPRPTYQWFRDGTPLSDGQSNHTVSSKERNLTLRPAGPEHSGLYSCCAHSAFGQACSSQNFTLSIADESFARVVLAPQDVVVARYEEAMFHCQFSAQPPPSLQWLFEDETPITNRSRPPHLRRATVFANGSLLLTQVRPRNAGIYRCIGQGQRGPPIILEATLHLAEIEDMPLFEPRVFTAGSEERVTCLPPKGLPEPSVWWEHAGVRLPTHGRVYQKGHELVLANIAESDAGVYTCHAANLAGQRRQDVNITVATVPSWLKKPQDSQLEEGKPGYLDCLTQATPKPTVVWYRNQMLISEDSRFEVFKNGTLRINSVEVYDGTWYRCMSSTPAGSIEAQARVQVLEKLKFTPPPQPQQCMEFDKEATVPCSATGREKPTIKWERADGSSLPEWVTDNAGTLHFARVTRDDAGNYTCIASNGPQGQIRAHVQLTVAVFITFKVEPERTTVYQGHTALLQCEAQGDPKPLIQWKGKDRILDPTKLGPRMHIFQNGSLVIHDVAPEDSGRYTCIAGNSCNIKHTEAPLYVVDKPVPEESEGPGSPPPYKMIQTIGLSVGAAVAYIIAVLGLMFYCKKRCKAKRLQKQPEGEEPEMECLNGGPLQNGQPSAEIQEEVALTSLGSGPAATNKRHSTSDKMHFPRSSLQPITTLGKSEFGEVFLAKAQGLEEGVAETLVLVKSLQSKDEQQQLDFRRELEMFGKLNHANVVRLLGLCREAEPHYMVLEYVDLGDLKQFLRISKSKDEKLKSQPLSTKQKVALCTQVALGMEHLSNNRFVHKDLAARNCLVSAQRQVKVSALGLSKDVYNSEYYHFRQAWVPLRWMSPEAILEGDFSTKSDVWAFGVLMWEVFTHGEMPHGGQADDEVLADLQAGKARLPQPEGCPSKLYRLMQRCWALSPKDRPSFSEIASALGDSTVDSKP
Kind of data set: covalent biotin transfer on cells, SA-HRP blot. The note with it: EC50 of label transfer, not equilibrium Kd; transfected HEK293T, 1 h, 5 mM MgCl2; T27 replaced by 5-octadiynyl-dU, clicked to azide-tethered N-acyl sulfonamide biotin electrophile 1; DPBS with 5 mM MgCl2, 4.5 g/L glucose, pH 7.4, 37 C, 1 h (cells: plus 0.1 mg/mL yeast tRNA); read-out is proximity-driven covalent labeling, no equilibrium Kd ….

Data set [2] deals with T2, PTK7 (recombinant, R&D Biosystems NC2081082) (UniProt Q13308 31-703).
T2 sequence: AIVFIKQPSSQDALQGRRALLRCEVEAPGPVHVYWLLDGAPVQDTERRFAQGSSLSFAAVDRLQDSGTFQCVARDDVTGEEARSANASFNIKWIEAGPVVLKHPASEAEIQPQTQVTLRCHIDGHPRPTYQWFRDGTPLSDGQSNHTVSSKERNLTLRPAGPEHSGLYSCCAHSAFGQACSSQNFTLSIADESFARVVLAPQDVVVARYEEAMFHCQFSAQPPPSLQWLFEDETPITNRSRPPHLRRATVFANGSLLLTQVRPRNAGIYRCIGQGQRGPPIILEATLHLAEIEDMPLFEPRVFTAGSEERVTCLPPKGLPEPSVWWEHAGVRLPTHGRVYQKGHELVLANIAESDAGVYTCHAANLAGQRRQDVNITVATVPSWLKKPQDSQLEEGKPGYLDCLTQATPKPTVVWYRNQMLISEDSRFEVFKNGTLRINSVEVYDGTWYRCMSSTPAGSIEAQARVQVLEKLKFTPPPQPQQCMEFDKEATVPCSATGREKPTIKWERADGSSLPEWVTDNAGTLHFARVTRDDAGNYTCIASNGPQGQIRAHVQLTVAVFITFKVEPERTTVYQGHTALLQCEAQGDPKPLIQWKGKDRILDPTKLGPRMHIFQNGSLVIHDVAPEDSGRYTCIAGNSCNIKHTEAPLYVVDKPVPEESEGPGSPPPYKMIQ
Kind of data set: covalent biotin transfer, SA-HRP blot; EC50 of label transfer, not equilibrium Kd; 100 nM PTK7, 1 h, 37 C, 5 mM MgCl2; DPBS with 5 mM MgCl2, 4.5 g/L glucose, pH 7.4, 37 C, 1 h (cells: plus 0.1 mg/mL yeast tRNA); read-out is proximity-driven covalent labeling, no equilibrium Kd measured. The settings on record: protein: commercial; label: transferable biotin; stem-loop (UNIFold prediction).

As to “ATCTAACTGCTGCGCCGCCGGGAAAATACTGTACGGTTAGA [sgc8c(27)-1]”, the K half in data set [1] came out at 251 nM.

B1: sgc8c(27)-1 (structured_DNA)
DNA: ATCTAACTGCTGCGCCGCCGGGAAAATACTGTACGGTTAGA
modifications: T27 replaced by 5-octadiynyl-dU, clicked to azide-tethered N-acyl sulfonamide biotin electrophile 1
As to B1, the “apparent K (half saturation)” value in data set [2] is 203 nM.
